T1: Elongin BC complex (wild type rat Elongin B and C) (rat, UniProt P62870)
T1 chain 1: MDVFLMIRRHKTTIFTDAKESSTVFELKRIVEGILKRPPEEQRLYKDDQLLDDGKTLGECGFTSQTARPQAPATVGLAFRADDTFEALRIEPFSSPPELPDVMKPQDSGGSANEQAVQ
T1 chain 2: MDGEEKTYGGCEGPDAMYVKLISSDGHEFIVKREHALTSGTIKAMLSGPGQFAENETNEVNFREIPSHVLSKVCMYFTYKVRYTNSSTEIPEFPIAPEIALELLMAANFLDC


Target: T1, Elongin BC complex (wild type rat …)
Experiment: refolded with wild type Elongin B and C; TSK SP-NPR HPLC, SDS-PAGE, silver staining

Row | Binder | binding result
1 | Elongin A internal deletion mutant Δ586-610 (other) MAAESALQVVEKLQARLAANPDPKKLLKYLKKLSVLPITVDILVETGVGKTVNSFRKHEQVGNFARDLVAQWKKLVPVERNNEAEDQDFEKSNSRKRPRDVPQQEEEAEGNYQESWQASGSQPYSPEHRQKKHRKLPELERPHKVAHGHERRDERKRCHKVSPPYSSDPESSDYGHVQSPPPSSPHQMYTDLSRSPEMDQEPIVSHPKPGKVHSNTFQDRLGVSHLGEHQGKGAVSQNKPHKSSHKEKRPVDARGDEKSSVMGREKSHKASSKEESRRLLSEDSAKEKLPSSVVKKEKDREGNSLKKKLSPALDVASDNHFKKPKHKDSEKIKSDKNKQSVDSVDSGRGTGDPLPRAKDKVPNNLKAQEGKVRTNSDRKSPGSLPKVEEMDMDDEFEQPTMSFESYLSYDQPRKKKKKVVKTSGTALGEKGLKKKDSKSTSKNLNSAQKLPKANENKSDKLQPAGAEPTRPRKVPTDVLPALPDIPLPAIQTNYRPLPSLELISSFQPKRKAFSSPQEEEEAGFTGRRMNSKMQVYSGSKCAYLPKMMTLHQQCIRVLKNNIDSIFEVGGVPYSVLEPVLERCTPHRDFKEERPEEYESWREMYLRLQDAREQRLRLLTNNIRSAHANKPKGRQAKMAFVNSVAKPPRDVRRRQEKFGTGGAAVPEKVRIKPAPYTTGSSHVPASNSSSSFHSSPEELAYEGPSTSSAHLAPVASSSVSYDPRKPAVKKIAPMMAKTIKAFKNRFSRR | binds
2 | Elongin A internal deletion mutant Δ566-585 (other) MAAESALQVVEKLQARLAANPDPKKLLKYLKKLSVLPITVDILVETGVGKTVNSFRKHEQVGNFARDLVAQWKKLVPVERNNEAEDQDFEKSNSRKRPRDVPQQEEEAEGNYQESWQASGSQPYSPEHRQKKHRKLPELERPHKVAHGHERRDERKRCHKVSPPYSSDPESSDYGHVQSPPPSSPHQMYTDLSRSPEMDQEPIVSHPKPGKVHSNTFQDRLGVSHLGEHQGKGAVSQNKPHKSSHKEKRPVDARGDEKSSVMGREKSHKASSKEESRRLLSEDSAKEKLPSSVVKKEKDREGNSLKKKLSPALDVASDNHFKKPKHKDSEKIKSDKNKQSVDSVDSGRGTGDPLPRAKDKVPNNLKAQEGKVRTNSDRKSPGSLPKVEEMDMDDEFEQPTMSFESYLSYDQPRKKKKKVVKTSGTALGEKGLKKKDSKSTSKNLNSAQKLPKANENKSDKLQPAGAEPTRPRKVPTDVLPALPDIPLPAIQTNYRPLPSLELISSFQPKRKAFSSPQEEEEAGFTGRRMNSKMQVYSGSKCAYLPKMMTLHQQCIRVLKNNIDSIDQLYRIEECNHVLIEETDQLWKVHCHRDFKEERPEEYESWREMYLRLQDAREQRLRLLTNNIRSAHANKPKGRQAKMAFVNSVAKPPRDVRRRQEKFGTGGAAVPEKVRIKPAPYTTGSSHVPASNSSSSFHSSPEELAYEGPSTSSAHLAPVASSSVSYDPRKPAVKKIAPMMAKTIKAFKNRFSRR | binds
3 | wild type Elongin A (other) MAAESALQVVEKLQARLAANPDPKKLLKYLKKLSVLPITVDILVETGVGKTVNSFRKHEQVGNFARDLVAQWKKLVPVERNNEAEDQDFEKSNSRKRPRDVPQQEEEAEGNYQESWQASGSQPYSPEHRQKKHRKLPELERPHKVAHGHERRDERKRCHKVSPPYSSDPESSDYGHVQSPPPSSPHQMYTDLSRSPEMDQEPIVSHPKPGKVHSNTFQDRLGVSHLGEHQGKGAVSQNKPHKSSHKEKRPVDARGDEKSSVMGREKSHKASSKEESRRLLSEDSAKEKLPSSVVKKEKDREGNSLKKKLSPALDVASDNHFKKPKHKDSEKIKSDKNKQSVDSVDSGRGTGDPLPRAKDKVPNNLKAQEGKVRTNSDRKSPGSLPKVEEMDMDDEFEQPTMSFESYLSYDQPRKKKKKVVKTSGTALGEKGLKKKDSKSTSKNLNSAQKLPKANENKSDKLQPAGAEPTRPRKVPTDVLPALPDIPLPAIQTNYRPLPSLELISSFQPKRKAFSSPQEEEEAGFTGRRMNSKMQVYSGSKCAYLPKMMTLHQQCIRVLKNNIDSIFEVGGVPYSVLEPVLERCTPDQLYRIEECNHVLIEETDQLWKVHCHRDFKEERPEEYESWREMYLRLQDAREQRLRLLTNNIRSAHANKPKGRQAKMAFVNSVAKPPRDVRRRQEKFGTGGAAVPEKVRIKPAPYTTGSSHVPASNSSSSFHSSPEELAYEGPSTSSAHLAPVASSSVSYDPRKPAVKKIAPMMAKTIKAFKNRFSRR | binds
4 | Elongin A internal deletion mutant Δ611-650 (other) MAAESALQVVEKLQARLAANPDPKKLLKYLKKLSVLPITVDILVETGVGKTVNSFRKHEQVGNFARDLVAQWKKLVPVERNNEAEDQDFEKSNSRKRPRDVPQQEEEAEGNYQESWQASGSQPYSPEHRQKKHRKLPELERPHKVAHGHERRDERKRCHKVSPPYSSDPESSDYGHVQSPPPSSPHQMYTDLSRSPEMDQEPIVSHPKPGKVHSNTFQDRLGVSHLGEHQGKGAVSQNKPHKSSHKEKRPVDARGDEKSSVMGREKSHKASSKEESRRLLSEDSAKEKLPSSVVKKEKDREGNSLKKKLSPALDVASDNHFKKPKHKDSEKIKSDKNKQSVDSVDSGRGTGDPLPRAKDKVPNNLKAQEGKVRTNSDRKSPGSLPKVEEMDMDDEFEQPTMSFESYLSYDQPRKKKKKVVKTSGTALGEKGLKKKDSKSTSKNLNSAQKLPKANENKSDKLQPAGAEPTRPRKVPTDVLPALPDIPLPAIQTNYRPLPSLELISSFQPKRKAFSSPQEEEEAGFTGRRMNSKMQVYSGSKCAYLPKMMTLHQQCIRVLKNNIDSIFEVGGVPYSVLEPVLERCTPDQLYRIEECNHVLIEETDQLWKVHCHANKPKGRQAKMAFVNSVAKPPRDVRRRQEKFGTGGAAVPEKVRIKPAPYTTGSSHVPASNSSSSFHSSPEELAYEGPSTSSAHLAPVASSSVSYDPRKPAVKKIAPMMAKTIKAFKNRFSRR | binds
5 | Elongin A internal deletion mutant Δ651-690 (other) MAAESALQVVEKLQARLAANPDPKKLLKYLKKLSVLPITVDILVETGVGKTVNSFRKHEQVGNFARDLVAQWKKLVPVERNNEAEDQDFEKSNSRKRPRDVPQQEEEAEGNYQESWQASGSQPYSPEHRQKKHRKLPELERPHKVAHGHERRDERKRCHKVSPPYSSDPESSDYGHVQSPPPSSPHQMYTDLSRSPEMDQEPIVSHPKPGKVHSNTFQDRLGVSHLGEHQGKGAVSQNKPHKSSHKEKRPVDARGDEKSSVMGREKSHKASSKEESRRLLSEDSAKEKLPSSVVKKEKDREGNSLKKKLSPALDVASDNHFKKPKHKDSEKIKSDKNKQSVDSVDSGRGTGDPLPRAKDKVPNNLKAQEGKVRTNSDRKSPGSLPKVEEMDMDDEFEQPTMSFESYLSYDQPRKKKKKVVKTSGTALGEKGLKKKDSKSTSKNLNSAQKLPKANENKSDKLQPAGAEPTRPRKVPTDVLPALPDIPLPAIQTNYRPLPSLELISSFQPKRKAFSSPQEEEEAGFTGRRMNSKMQVYSGSKCAYLPKMMTLHQQCIRVLKNNIDSIFEVGGVPYSVLEPVLERCTPDQLYRIEECNHVLIEETDQLWKVHCHRDFKEERPEEYESWREMYLRLQDAREQRLRLLTNNIRSAEKVRIKPAPYTTGSSHVPASNSSSSFHSSPEELAYEGPSTSSAHLAPVASSSVSYDPRKPAVKKIAPMMAKTIKAFKNRFSRR | binds
